Laboratory results as given in patent US20230137139A1, “BIOSYNTHESIS OF CANNABINOIDS AND C[…]” (priority 2020, published 2023).

Legend:
Assay type in all cases: cell-based, S. cerevisiae
[1] = test system: CBCA, THCA, and CBDA production; CBGA residual substrate; experiment: In vivo TS activity assay, Example 3 metagenomic CBCAS screen, cultures fed olivetolic acid; settings: for Mean CBCA / Mean CBDA / Mean THCA: metagenomic CBCAS candidates in S. cerevisiae, secondary screen, quadruplicate; for Mean CBCA / Mean CBDA / Mean THCA / % CBCA / % CBDA / % THCA: fed 1 mM olivetolic acid; for Average CBGA residual substrate: olivetolic acid fed (Table 12); for % CBCA / % CBDA / % THCA: share of terminal cannabinoid product profile
Procedure: (§1) An assay to detect TS activity was conducted as follows: each thawed glycerol stock of candidate CBCAS transformants was stamped into a well of YEP+4% dextrose media. Samples were incubated at 30° C. in a shaking incubator for 2 days. A portion of each of the resulting cultures was stamped into a well of YEP+4% galactose+1 mM olivetolic acid (FIG. 1 Structure 6a). Samples were incubated at 20° C. and shaken in a shaking incubator for 4 days. Every 24 hours during those 4 days, 2% galactose and 1 mM olivetolic acid were spiked into the cultures. Sodium citrate buffer adjusted to pH 5.5 was added to each well at a final concentration of 100 mM. Samples were incubated at 20° C. and shaken in a shaking incubator for 2 days. A portion of each of the resulting production cultures was stamped into a well of phosphate buffered saline (PBS). Optical measurements were taken on a plate reader, with absorbance measured at 600 nm and fluorescence at 528 nm with 485 nm excitation. Samples were incubated at 30° C. in a shaking incubator for 2 days. 100% methanol was stamped into the production cultures in half-height deepwell plates. Plates were heat sealed and frozen. Samples were then thawed for 30 min and spun down at 4° C. A portion of the supernatant was stamped into half-area 96 well plates. CBCA, THCA, and CBDA production in the samples was quantified via liquid chromatography-mass spectrometry (LC-MS).
(§2) To explore whether other putative CBCASs may exist in the broader metagenome, a library of 1072 candidate CBCAS genes was designed using the A. niger CBCAS enzyme identified in Example 1 as a reference. Protein sequences were recoded in silico for expression in S. cerevisiae and synthesized in the integrative yeast expression vector shown in FIG. 5. Each candidate enzyme expression construct was transformed into an S. cerevisiae CEN.PK strain that also expressed a prenyltransferase enzyme capable of catalyzing reaction R^4 in FIG. 2. Strain t616313, expressing GFP, was included in the library screen as a negative control for enzyme activity. Strain t807925, expressing the A. niger enzyme identified in Example 1, was included in the library screen as a positive control for enzyme activity. All candidate enzymes in the library, as well as the enzyme expressed by positive control strain t807925, included an N-terminal MFalpha2 signal peptide (SEQ ID NO: 16) (with a methionine residue added at the N-terminus of the MFalpha2 signal peptide) and a C-terminal HDEL signal peptide (SEQ ID NO: 17).
The library of candidate CBCAS enzymes was assayed for activity in a primary high-throughput screen using the assay described in Example 1. Production of CBCA, THCA, and/or CBDA in the samples was quantified via LC-MS.
(§3) Based on results of the primary screen, 70 strains were carried forward to a secondary screen to confirm activity observed in the primary screen. The experimental protocol for the secondary screen was identical to the primary screen, except that additional technical replicates were included per strain, and replicate production cultures for each strain were separately fed 1 mM olivetolic acid or 1 mM divaric acid. All strains were screened in quadruplicate (FIGS. 10A-10C, Tables 10 and 11).

[2] = test system: CBCA, THCA, and CBDA production; experiment: In vivo TS activity assay, Example 2 protein engineering of A. niger CBCAS, cultures fed olivetolic acid
Summary of the method: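 CBCA, THCA and CBDA were measured by LC-MS in methanol extracts of yeast cultures expressing mutant A. niger CBCAS. Cultures were induced at 20 °C with galactose and fed 1 mM olivetolic acid daily for 4 days, then buffered with 100 mM sodium citrate pH 5.5. Secondary screen: quadruplicates fed 1 mM olivetolic or divaric acid.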

[3] = test system: CBCVA, THCVA, and CBDVA production; experiment: In vivo TS activity assay, Example 2 protein engineering of A. niger CBCAS, cultures fed divaric acid; settings: fed divaric acid
Summary of the method: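 Quantification by LC-MS of methanol-extracted production cultures, strains in quadruplicate. Yeast carrying mutant A. niger CBCAS (MFalpha2 N-terminal and HDEL C-terminal signal peptides) were induced 4 days at 20 °C in YEP+4% galactose fed 1 mM divaric acid, re-dosed every 24 h with 2% galactose and 1 mM divaric acid, after 2 days of dextrose preculture at 30 °C; 100 mM citrate pH 5.5 was then added for 2 more days.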

[4] = test system: CBCVA, THCVA, and CBDVA production; CBGVA residual substrate; experiment: In vivo TS activity assay, Example 3 metagenomic CBCAS screen, cultures fed divaric acid; settings: for Average CBGVA residual substrate: divaric acid fed (Table 12); for Mean CBCVA / Mean CBDVA / Mean THCVA: secondary screen, S. cerevisiae, quadruplicate, LC-MS; for Mean CBCVA / Mean CBDVA / Mean THCVA / % CBCVA / % CBDVA / % THCVA: cultures fed 1 mM divaric acid; for % CBCVA / % CBDVA / % THCVA: share of terminal cannabinoid products
Procedure: as §1, §2, §3

[5] = secondary screen, olivetolic acid (Table 8)
[6] = share of terminal cannabinoid product profile
[7] = S. cerevisiae strains expressing A. niger CBCAS mutants, secondary screen

| Molecule | Mean CBCA [1] | Mean CBDA [1] | Mean THCA [1] | Average CBGA residual substrate [1] | % CBCA [1] | % CBDA [1] | % THCA [1] | Average CBGVA residual substrate [4] | Mean CBCVA [4] | Mean CBDVA [4] | Mean THCVA [4] | % CBCVA [4] | % CBDVA [4] | % THCVA [4] | other results |
| --- | --- | --- | --- | --- | --- | --- | --- | --- | --- | --- | --- | --- | --- | --- | --- |
| Strain t808200: library TS SEQ ID NO: 164, UniProt A0A3F3PQ52, Aspergillus welwitschiae (protein) MGNTTSIAGRDCLISALGGNSALAAFPNELLWTADVHEYNLNLPVTPAAITYPETAEQIAGIVKCASDYDYKVQARSGGHSFGNYGLGGADGAVVVDMKHFTQFSMDDETYEAVIGPGTTLNDVDIELYNNGKRAMAHGVCPTIKTGGHFTIGGLGPTARQWGLALDHVEEVEVVLANSSIVRASNTQNQDVFFAVKGAAANFGIVTEFKVRTEPAPGLAVQYSYTFNLGSTAEKAQFVKDWQSFISAKNLTRQFYNNMVIFDGDIILEGLFFGSKEQYDALGLEDHFAPKNPGNILVLTDWLGMVGHALEDTILKLVGNTPTWFYAKSLGFRQDTLIPSAGIDEFFEYIANHTAGTPAWFVTLSLEGGAINDIAEDATAYAHRDVLFWVQLFMVNPLGPISDTTYEFTDGLYDVLARAVPESVGHAYLGCPDPRMEDAQQKYWRTNLPRLQELKEELDPKNTFHHPQGVMPA | – | – | – | – | – | – | – | – | – | – | – | – | – | – | percentage of CBCA in product profile compared with the A. niger positive control [1]: higher percentage of CBCA |
| t865772 (protein, expressed in S. cerevisiae strain) MGNTTSIAGRDCLISALGGNSALAVFPNELLWTAAVHEYNLNLPVTPAAITYPETAAQIAGVVKCASDYDYKVQARSGGHSFGNYGLGGADGAVVVDMKHFTQFSMDDETYEAVIGPGTTLNDVDIELYNNGKRAMAHGVCPTIKTGGHFTIGGLGPTARQWGLALDHVEEVEVVLANSSIVRASNTQNQDVFFAVKGAAANFGIVTEFKVRTEPAPGLAVQYSYTFNLGSTAEKAQFVKDWQSFISAKNLTRQFYNNMVIFDGDIILEGLFFGSKEQYDALGLEDHFAPKNPGNILVLTDWLGMVGHALEDTILKLVGNTPTWFYAKSLGFRQDTLIPSAGIDEFFEYIANHTAGTPAWFVTLSLEGGAINDVAEDATAYAHRDVLFWVQLFMVNPVGPISDTTYEFTDGLYDVLARAVPESVGHAYLGCPDPRMEDAQQKYWRTNLPRLQELKEELDPKNTFHHPQGVMPA | – | – | – | – | – | – | – | – | – | – | – | – | – | – | Mean CBCA [2, 5]: 9992.22 µg/L; Mean CBDA [2, 5]: 3051.02 µg/L; Mean THCA [2, 5]: 622.72 µg/L; % CBCA [2, 6]: 73.12%; % CBDA [2, 6]: 22.33%; % THCA [2, 6]: 4.56%; Mean CBCVA [3, 7]: 1441.55 µg/L; Mean CBDVA [3, 7]: 0.00 µg/L; Mean THCVA [3, 7]: 702.24 µg/L; % CBCVA [3, 6]: 67.24%; % CBDVA [3, 6]: 0.00%; % THCVA [3, 6]: 32.76% |
| t808232 (protein) MGNTTSIAAGRDCLLSAVGGNHAHVAFQDQLLYQATAVEPYNLNIPVTPAAVTYPQSADEVAAVVKCAADYGYKVQARSGGHSFGNYGLGGEDGAIVVDMKHFDQFSMDESTYTATIGPGITLGDLDTALYNAGHRAMAHGICPTIRTGGHLTIGGLGPTARQWGLALDHVEEVEVVLANSSIVRASDTQNQEILFAVKGAAASFGIVTEFKVRTEEAPGLAVQYSFTFNLGTAAEKAKLVKDWQAFIAQEDLTWKFYSNMNIIDGQIILEGIYFGSKAEYDALGLEEKFPTSEPGTVLVLTDWLGMVGHGLEDVILRLVGNAPTWFYAKSLGFAPRALIPDSAIDDFFEYIHKNNPGTVSWFVTLSLEGGAINKVPEDATAYGHRDVLFWVQIFMINPLGPVSQTIYDFADGLYDVLAKAVPESAGHAYLGCPDPRMPNAQQAYWRNNLPRLEELKGDLDPKDIFHNPQGVMVVS | 20281.01 µg/L | 64.49 µg/L | 1367.99 µg/L | 0.00 µg/L | 93.40% | 0.30% | 6.30% | 0.00 µg/L | 2379.23 µg/L | 0.00 µg/L | 1626.74 µg/L | 59.39% | 0.00% | 40.61% | – |
| t808237 (protein) MGNTTSIAGRDCLVSALGGNAGLVAFQDQLLYQTTAVHEYNLNIPVTPAAVTYPETAEQIAAVVKCASEYDYKVQARSGGHSFGNYGLGGADGAVVVDMKHFSQFSMDDQTYEAVIGPGTTLGDVDTELYNNGKRAMAHGICPTISTGGHFTMGGLGPTARQWGLALDHVEEVEVVLANSSIVRASNTQNQEVFFAVKGAAASFGIVTEFKVRTQPAPGLAVQYSYTFNIGSSAEKAQFVKDWQSFISAKNLTRQFYTNMVIFDGDIILEGLFFGSQEQYEALGLEDRFVPKNPGNILVLTDWLGMVGHALEDTILRLVGNTPTWFYAKSLGFTPDTLIPASGIDEFFDYIENHKAGTLTWFVTLSLEGGAINDVPEDATAYGHRDVLFWVQIFMASPTGPVSSTTYDFADGLYNVLTKAVPESEGHAYLGCPDPKMADAQQKYWRQNLPRLEELKATLDPKDTFHNPQGILPA | 12281.96 µg/L | 37.34 µg/L | 760.03 µg/L | 69.20 µg/L | 93.90% | 0.29% | 5.81% | 0.00 µg/L | 3599.07 µg/L | 0.00 µg/L | 1273.10 µg/L | 73.87% | 0.00% | 26.13% | – |
| t808238 (protein) MWLSTMNGSASRRSDPVSRKIVCDGHASAHEVRTDNEAARDVPSRTAVNKERKQGSGPPGAMQRGFHAAHKPNEMVPQDGPLGRTAQLFRLAPACQSEPTRAPGQPSDLRLRQIPLATEQAARTLARMRPARFTFPYGRAAEDDCYLKKEDEGHDQSHPTSVLVGVPPFTRRCAAAETFKDTRARAPGTQPTDTTSTGASPSWTLSPLLSLSATDDSVPSKMGNGQSTPLQQCLNTVCNGRLGCVAFPSDALYQAAWVKPYNLDVPVTPIAVFKPSSTEDVAGAIKCAVASNVHVQAKSGGHSYANFGLGGQDGELMIDLANLQDFHMDKTSWQATFGAGYRLGDLDKKLQANGNRAIAHGTCPGVGIGGHATIGGLGPMSRMWGSALDHVLSVQVVTADGSIKNASESENSDLFWALRGAGASFGVITKFTVKTHPAPGSVVQYTYKISLGSQAQMAPVYAAWQALAGDPKLDRRFSTLFIAEPLGALITGTFYGTKAEYEATGIAARLPSGGTLDLKLLDWLGSLAHIAEVVGLTLGDIPTSFYGKSLALREEDMLDRTSIDGLFRYMGDADAGTLLWFVIFNSEGGAMADTPAGATAYPHRDKLIMYQSYVIGIPTLTKATRDFADGVHDRVRMGAPSANSTYAGYIDRTLSREAAQEFYWGAQLPRLREVKKAWDPKDVFHNPQSVDPAE | 2934.86 µg/L | 0.00 µg/L | 0.00 µg/L | 63815.30 µg/L | 100.00% | 0.00% | 0.00% | 9247.47 µg/L | 1841.90 µg/L | 0.00 µg/L | 282.10 µg/L | 86.72% | 0.00% | 13.28% | – |
